In assay [1] the target is HLA-B*58:01. As to the kind of experiment: IEDB peptide-MHC binding, purified MHC/competitive/radioactivity; filed as Kd, often an IC50 or EC50 that approximates it; ≥ and ≤ were set here for values at or beyond the usual limits of such assays.
Assay [2] deals with HLA-B*39:01. As to the kind of experiment: IEDB peptide-MHC binding, purified MHC/competitive/fluorescence; filed as Kd, often an IC50 or EC50 that approximates it; ≥ and ≤ were set here for values at or beyond the usual limits of such assays.
In assay [3] the target is HLA-B*15:01. Nature of the assay: IEDB peptide-MHC binding, purified MHC/direct/fluorescence; filed as Kd, often an IC50 or EC50 that approximates it; ≥ and ≤ were set here for values at or beyond the usual limits of such assays.
Assay [4] deals with HLA-B*40:01. The description is as above.
Assay [5] has as its target HLA-B*27:05. The assay is described as above.
In assay [6] the target is HLA-B*46:01. The description is as above.
The target in assay [7] is HLA-B*57:01. The description is as above. The note with it: source organism: Mycobacterium tuberculosis.
Assay [8] deals with HLA-B*51:01. The assay is described as above. The note with it: source organism: Mycobacterium tuberculosis.
Assay [9] deals with HLA-B*48:01. The assay is described as above. The note with it: source organism: Mycobacterium tuberculosis.
In assay [10] the target is HLA-B*15:17. The assay is described as above. The note with it: source organism: Mycobacterium tuberculosis.
The target in assay [11] is HLA-A*03:01. The assay is described as above.
For assay [12], the target named is HLA-B*58:01. The description is as above.
Assay [13] addresses HLA-B*08:02. Described as above.
The target in assay [14] is HLA-A*11:01. Described as above.
Assay [15] concerns the target HLA-A*26:01. Described as above.
Assay [16] deals with HLA-A*31:01. The description is as above.
The target of assay [17] is HLA-A*69:01. The assay is described as above.
Assay [18] has as its target HLA-B*18:01. The description is as above.
Assay [19] has as its target HLA-A*01:01. The assay is described as above.
Assay [20] concerns the target HLA-A*02:01. The description is as above.
Assay [21] deals with HLA-B*44:02. The description is as above.
The target in assay [22] is HLA-B*08:01. Described as above.
In assay [23] the target is HLA-A*24:02. The description is as above.
The target of assay [24] is HLA-B*07:02. The description is as above.
Assay [25] addresses HLA-A*24:03. Nature of the assay: IEDB peptide-MHC binding, purified MHC/competitive/fluorescence; filed as Kd, often an IC50 or EC50 that approximates it; ≥ and ≤ were set here for values at or beyond the usual limits of such assays.
In assay [26] the target is HLA-B*39:01. As to the kind of experiment: IEDB peptide-MHC binding, purified MHC/direct/fluorescence; filed as Kd, often an IC50 or EC50 that approximates it; ≥ and ≤ were set here for values at or beyond the usual limits of such assays. The note with it: source organism: H9N2 subtype Influenza A virus (A/swine/Korea/S83/2004(H9N2)).
Assay [27] has as its target HLA-B*15:01. Nature of the assay: IEDB peptide-MHC binding, purified MHC/competitive/fluorescence; filed as Kd, often an IC50 or EC50 that approximates it; ≥ and ≤ were set here for values at or beyond the usual limits of such assays. The following applies: source organism: Mycobacterium tuberculosis variant bovis BCG str. Pasteur 1173P2.
Assay [28] addresses HLA-A*68:02. The assay is described as above. The note with it: source organism: Mycobacterium tuberculosis variant bovis BCG str. Pasteur 1173P2.
Assay [29] deals with HLA-A*02:19. Described as above. The following applies: source organism: Mycobacterium tuberculosis variant bovis BCG str. Pasteur 1173P2.
The target of assay [30] is HLA-B*46:01. The description is as above. The note with it: source organism: Mycobacterium tuberculosis variant bovis BCG str. Pasteur 1173P2.
The target in assay [31] is HLA-B*57:01. The assay is described as above. The note with it: source organism: Mycobacterium tuberculosis variant bovis BCG str. Pasteur 1173P2.
In assay [32] the target is HLA-B*51:01. The description is as above. The note with it: source organism: Mycobacterium tuberculosis variant bovis BCG str. Pasteur 1173P2.
In assay [33] the target is HLA-B*15:17. Described as above. The note with it: source organism: Mycobacterium tuberculosis variant bovis BCG str. Pasteur 1173P2.
In assay [34] the target is HLA-A*03:01. The assay is described as above. The note with it: source organism: Mycobacterium tuberculosis variant bovis BCG str. Pasteur 1173P2.
For assay [35], the target named is HLA-A*26:01. Described as above. The following applies: source organism: Mycobacterium tuberculosis variant bovis BCG str. Pasteur 1173P2.
For assay [36], the target named is HLA-A*29:02. Described as above. The note with it: source organism: Mycobacterium tuberculosis variant bovis BCG str. Pasteur 1173P2.
Assay [37] has as its target HLA-A*69:01. Described as above. The following applies: source organism: Mycobacterium tuberculosis variant bovis BCG str. Pasteur 1173P2.
Assay [38] has as its target HLA-B*18:01. The description is as above. The note with it: source organism: Mycobacterium tuberculosis variant bovis BCG str. Pasteur 1173P2.
Assay [39] deals with HLA-B*27:03. The assay is described as above. The following applies: source organism: Mycobacterium tuberculosis variant bovis BCG str. Pasteur 1173P2.
Setting [40] is: source organism: Mycobacterium tuberculosis.
[41] abbreviates: source organism: Mycobacterium tuberculosis C.
[42] abbreviates: source organism: Influenza A virus (A/chicken/Vietnam/393/2005(H5N1)).
Setting [43] is: source organism: Influenza A virus(A/swine/Shandong/fNY/2003(H9N2)).
The mark [44] stands for this setting: source organism: H9N2 subtype Influenza A virus (A/swine/Korea/S83/2004(H9N2)).
The mark [45] stands for this setting: source organism: Influenza A virus (A/Puerto Rico/8/34/Mount Sinai(H1N1)).
Setting [46] is: source organism: Mycobacterium tuberculosis variant bovis BCG str. Pasteur 1173P2.

As for LASAILNAHK, the equilibrium dissociation constant (Kd) – broadly, the constant that tells how readily two partners part at equilibrium – in assay [1] (source organism: Dengue virus 4 Dominica/814669/1981) is 3.46 µM.
Regarding KPARGGSSI, the Kd is 2.76 µM in assay [2] (source organism: Parafrankia sp. EAN1pec); no less than 20 µM in [3] (setting [40]); no less than 20 µM in assay [4] (setting [40]); no less than 20 µM in assay [5] (setting [40]); no less than 20 µM in assay [6] (setting [40]); no less than 20 µM in [7]. Further, the Kd in [8] was 2.62 µM; in assay [9] it was no less than 20 µM; in assay [10], no less than 20 µM; in assay [11] (setting [40]) it was no less than 20 µM; in assay [12] (setting [40]) it was no less than 20 µM; in assay [13] (setting [41]), no less than 20 µM. Moreover, the Kd in [14] (setting [40]), in assay [15] (setting [41]), in assay [16] (setting [40]), in [17] (setting [40]), in [18] (setting [40]) and in assay [19] (setting [40]) was no less than 20 µM throughout. In addition, in assay [20] (setting [40]), the Kd is no less than 20 µM.
Consider VLTGNLQTL, for which the Kd in assay [21] (setting [42]), in [3] (setting [42]), in [4] (setting [42]), in assay [5] (setting [42]), in assay [6] (setting [42]) and in assay [22] (setting [42]) was no less than 20 µM each time. Further, the Kd in [23] (setting [42]), in assay [11] (setting [42]), in assay [12] (setting [42]), in [13] (setting [43]), in assay [14] (setting [42]) and in assay [24] (setting [42]) was no less than 20 µM throughout. Also, the Kd in [15] (setting [43]), in assay [16] (setting [42]), in assay [17] (setting [42]), in assay [18] (setting [42]) and in assay [19] (setting [42]) was no less than 20 µM in each case.
As to CYPGYFADY, in assay [25] (source organism: Influenza A virus (A/Harbin/1/1988(H1N2))), the Kd is no more than 0.001 µM.
With HFQKDAKVL, the Kd in assay [21] (setting [44]) is no less than 20 µM; in assay [3] (setting [45]) it was 2.66 µM; in assay [4] (setting [44]) it was no less than 20 µM; in assay [5] (setting [44]), no less than 20 µM; in assay [6] (setting [44]), no less than 20 µM; in assay [22] (setting [45]), 2.3 µM. The Kd in assay [23] (setting [44]), in assay [11] (setting [44]), in assay [12] (setting [44]), in assay [13] (source organism: Influenza A virus(A/swine/Shandong/fZC/2003(H9N2))), in assay [14] (setting [44]) and in assay [24] (setting [44]) was no less than 20 µM each time. The Kd in [16] (setting [44]) was no less than 20 µM; in assay [17] (setting [44]), no less than 20 µM; in assay [19] (setting [44]), no less than 20 µM; in assay [20] (setting [44]), no less than 20 µM; in assay [26], 10.4 µM.
TAAVLLLITH: the Kd in [1] (source organism: Dengue virus 3 Martinique/1243/1999) came out at 0.751 µM.
Consider RLAPEPVYT, for which the Kd in assay [27] was no less than 20 µM; in assay [28], no less than 20 µM; in assay [29], 0.0932 µM; in [30], no less than 20 µM; in assay [31], no less than 20 µM; in assay [32] it was no less than 20 µM. The Kd is no less than 20 µM in [33]; no less than 20 µM in assay [34]; no less than 20 µM in assay [35]; no less than 20 µM in assay [25] (setting [46]); 3 µM in assay [36]; no less than 20 µM in assay [37]. Besides, the Kd in [38], in assay [39] and in assay [2] (setting [46]) was no less than 20 µM throughout.
On to KHVQRIETW, for which the Kd in [1] (source organism: Dengue virus 2 Jamaica/1409/1983) was found to be 0.145 µM.

The record behind these values is the Immune Epitope Database (IEDB).
